Patent publication US20250092134A1

Columns and labels:
[1] = target: Vβ17 (on cells expressing Vβ17); experiment: cell-based or functional assay
[2] = target: TCR Vβ17 on T cells of PBMCs; experiment: flow cytometry on PBMCs, percent of cells stained
TCR Vβ17 on T cells of PBMCs, sequence (A0A075B6N1 22-114): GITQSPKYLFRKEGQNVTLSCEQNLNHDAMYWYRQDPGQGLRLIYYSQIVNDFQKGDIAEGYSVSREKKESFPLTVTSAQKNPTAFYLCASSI

Vβ17 (on cells expressing Vβ17), sequence (A0A075B6N1 22-114): as above

Substance	Cell Internalization (EC50) [1] [nM]	PBMC binding (%) [2] [%]
Anti TCR Vβ17-PE Ab, Beckman Coulter, Cat: IM2048 (antibody)	< 0.07	3.4
Goat anti mouse IgG PE, Southern Biotech, Cat: 1030-09 (antibody)		0.13
